Numbering of substitutions follows the chain as printed. Names may count otherwise.
How the values were obtained:
[1] = cited from earlier work
Description: Food intake is one of the most fundamental processes required for sustaining human life.

[2] = target: HA-tagged ghrelin receptor F286D (human) (UniProt Q92847)
[3] = tested on: ghrelin receptor (WT or mutants); test: Cell-surface expression assay (FACS); assay type: cell-based, human
Experimental: Cell-surface expression for each mutant was monitored by a fluorescence-activated cell sorting (FACS) assay. In brief, the expressed cells were incubated with mouse anti-HA-FITC antibody (Sigma) at a dilution of 1:200 for 20 min at 4 °C, and then a 9-fold excess of PBS was added to cells. […] The FACS data were analyzed by BD Accuri C6 software 1.0.264.21. The gating strategy and calculation method of expression are shown in Supplementary Fig. 11.
Supplementary Figure 11 | Gating strategy of cell surface expression assay. Circle a gate P1 in the scatter map (black circle). The cells shown in the histogram map are all the cells in the gate P1 in the scatter map. Fluorescence signal intensity (FITC) is presented by […]. With the Blank sample as the reference value of background fluorescence signal (a), the fluorescence signal histogram map is divided into two regions. The left region represents the negative cell community (FITC-), while the right region represents the positive cell community (FITC+). The expression level of cell surface wild-type (WT) ghrelin receptor (b) can be calculated as follows:
(M(FITC+)-M(FITC-))×(FITC+% Parent). M, mean fluorescence intensity. The expression level of the ghrelin receptor mutant is calculated similarly to WT receptor and then is normalized with the WT to calculate the relative expression value. […]

## ghrelin
[1]
  growth hormone-releasing activity: potent growth hormone-releasing activity

## ghrelin (octanoylated at Ser3) (peptide)
[2]
  fold decrease in calcium response of HEK293 cells, activity of ghrelin against the WT receptor: > 250 fold

B1: WT (protein, UniProt Q92847 1-366, looked up)
Growth hormone secretagogue …: MWNATPSEEPGFNLTLADLDWDASPGNDSLGDELLQLFPAPLLAGVTATCVALFVVGIAGNLLTMLVVSRFRELRTTTNLYLSSMAFSDLLIFLCMPLDLVRLWQYRPWNFGDLLCKLFQFVSESCTYATVLTITALSVERYFAICFPLRAKVVVTKGRVKLVIFVIWAVAFCSAGPIFVLVGVEHENGTDPWDTNECRPTEFAVRSGLLTVMVWVSSIFFFLPVFCLTVLYSLIGRKLWRRRRGDAVVGASLRDQNHKQTVKMLAVVVFAFILCWLPFHVGRYLFSKSFEPGSLEIAQISQYCNLVSFVLFYLSAAINPILYNIMSKKYRVAVFRLLGFEPFSQRKLSTLKDESSRAWTESSINT
[3]; replicate 1
  Cell-surface expression: 98.69%
[3]; replicate 2
  Cell-surface expression: 96.95%
[3]; replicate 3
  Cell-surface expression: 107.34%
[3]; replicate 4
  Cell-surface expression: 98.90%
[3]; replicate 5
  Cell-surface expression: 98.13%

B2: A204ECL2E (protein, UniProt Q92847 1-366, looked up, variant A204E)
Growth hormone secretagogue …: B1 Growth hormone secretagogue … with A204E
[3]; replicate 1
  Cell-surface expression: 81.34%
[3]; replicate 2
  Cell-surface expression: 81.24%
[3]; replicate 3
  Cell-surface expression: 78.97%
[3]; replicate 4
  Cell-surface expression: 76.38%
[3]; replicate 5
  Cell-surface expression: 75.96%

B3: D992.60A (protein)
chain: B1 Growth hormone secretagogue … with D99A
modifications: SNAP tag labelled with SNAP-Lumi4-Tb; left off: SNAP, N-terminal, kept
[3]; replicate 1
  Cell-surface expression: 101.25%
[3]; replicate 2
  Cell-surface expression: 96.41%
[3]; replicate 3
  Cell-surface expression: 90.24%
[3]; replicate 4
  Cell-surface expression: 92.75%
[3]; replicate 5
  Cell-surface expression: 94.78%

B4: Q3027.32A (protein)
chain: B1 Growth hormone secretagogue … with Q302A
modifications: SNAP tag labelled with SNAP-Lumi4-Tb; left off: SNAP, N-terminal, kept
[3]; replicate 1
  Cell-surface expression: 99.52%
[3]; replicate 2
  Cell-surface expression: 91.82%
[3]; replicate 3
  Cell-surface expression: 87.39%
[3]; replicate 4
  Cell-surface expression: 99.41%
[3]; replicate 5
  Cell-surface expression: 85.20%

B5: R2836.55A (protein)
chain: B1 Growth hormone secretagogue … with R283A
modifications: SNAP tag labelled with SNAP-Lumi4-Tb; left off: SNAP, N-terminal, kept
[3]; replicate 1
  Cell-surface expression: 56.22%
[3]; replicate 2
  Cell-surface expression: 65.89%
[3]; replicate 3
  Cell-surface expression: 64.91%
[3]; replicate 4
  Cell-surface expression: 66.07%
[3]; replicate 5
  Cell-surface expression: 63.09%

B6: E1243.33A (protein)
chain: B1 Growth hormone secretagogue … with E124A
modifications: SNAP tag labelled with SNAP-Lumi4-Tb; left off: SNAP, N-terminal, kept
[3]; replicate 1
  Cell-surface expression: 93.73%
[3]; replicate 2
  Cell-surface expression: 94.80%
[3]; replicate 3
  Cell-surface expression: 89.39%
[3]; replicate 4
  Cell-surface expression: 97.54%
[3]; replicate 5
  Cell-surface expression: 93.21%

B7: F2866.58A (protein)
chain: B1 Growth hormone secretagogue … with F286A
modifications: SNAP tag labelled with SNAP-Lumi4-Tb; left off: SNAP, N-terminal, kept
[3]; replicate 1
  Cell-surface expression: 90.14%
[3]; replicate 2
  Cell-surface expression: 93.12%
[3]; replicate 3
  Cell-surface expression: 89.15%
[3]; replicate 4
  Cell-surface expression: 93.89%
[3]; replicate 5
  Cell-surface expression: 90.00%

B8: R1022.63A (protein)
chain: B1 Growth hormone secretagogue … with R102A
modifications: SNAP tag labelled with SNAP-Lumi4-Tb; left off: SNAP, N-terminal, kept
[3]; replicate 1
  Cell-surface expression: 101.47%
[3]; replicate 2
  Cell-surface expression: 87.96%
[3]; replicate 3
  Cell-surface expression: 94.26%
[3]; replicate 4
  Cell-surface expression: 99.21%
[3]; replicate 5
  Cell-surface expression: 100.61%

B9: L37N-termA (protein)
chain: B1 Growth hormone secretagogue … with L37A
modifications: SNAP tag labelled with SNAP-Lumi4-Tb; left off: SNAP, N-terminal, kept
[3]; replicate 1
  Cell-surface expression: 100.75%
[3]; replicate 2
  Cell-surface expression: 98.96%
[3]; replicate 3
  Cell-surface expression: 98.94%
[3]; replicate 4
  Cell-surface expression: 96.06%
[3]; replicate 5
  Cell-surface expression: 97.45%

B10: F38N-termA (protein)
chain: B1 Growth hormone secretagogue … with F38A
modifications: SNAP tag labelled with SNAP-Lumi4-Tb; left off: SNAP, N-terminal, kept
[3]; replicate 1
  Cell-surface expression: 92.98%
[3]; replicate 2
  Cell-surface expression: 95.22%
[3]; replicate 3
  Cell-surface expression: 93.15%
[3]; replicate 4
  Cell-surface expression: 94.06%
[3]; replicate 5
  Cell-surface expression: 92.77%

B11: L1814.63A (protein)
chain: B1 Growth hormone secretagogue … with L181A
modifications: SNAP tag labelled with SNAP-Lumi4-Tb; left off: SNAP, N-terminal, kept
[3]; replicate 1
  Cell-surface expression: 94.17%
[3]; replicate 2
  Cell-surface expression: 98.71%
[3]; replicate 3
  Cell-surface expression: 96.25%
[3]; replicate 4
  Cell-surface expression: 95.38%
[3]; replicate 5
  Cell-surface expression: 113.13%

B12: F2796.51A (protein)
chain: B1 Growth hormone secretagogue … with F279A
modifications: SNAP tag labelled with SNAP-Lumi4-Tb; left off: SNAP, N-terminal, kept
[3]; replicate 1
  Cell-surface expression: 103.70%
[3]; replicate 2
  Cell-surface expression: 100.07%
[3]; replicate 3
  Cell-surface expression: 101.03%
[3]; replicate 4
  Cell-surface expression: 106.36%
[3]; replicate 5
  Cell-surface expression: 95.20%

B13: I1784.60A (protein)
chain: B1 Growth hormone secretagogue … with I178A
modifications: SNAP tag labelled with SNAP-Lumi4-Tb; left off: SNAP, N-terminal, kept
[3]; replicate 1
  Cell-surface expression: 94.94%
[3]; replicate 2
  Cell-surface expression: 100.59%
[3]; replicate 3
  Cell-surface expression: 91.58%
[3]; replicate 4
  Cell-surface expression: 96.01%
[3]; replicate 5
  Cell-surface expression: 89.87%

B14: L1032.64A (protein)
chain: B1 Growth hormone secretagogue … with L103A
modifications: SNAP tag labelled with SNAP-Lumi4-Tb; left off: SNAP, N-terminal, kept
[3]; replicate 1
  Cell-surface expression: 102.32%
[3]; replicate 2
  Cell-surface expression: 103.70%
[3]; replicate 3
  Cell-surface expression: 96.41%
[3]; replicate 4
  Cell-surface expression: 91.52%
[3]; replicate 5
  Cell-surface expression: 101.60%

B15: E197ECL2A (protein)
chain: B1 Growth hormone secretagogue … with E197A
modifications: SNAP tag labelled with SNAP-Lumi4-Tb; left off: SNAP, N-terminal, kept
[3]; replicate 1
  Cell-surface expression: 101.89%
[3]; replicate 2
  Cell-surface expression: 100.72%
[3]; replicate 3
  Cell-surface expression: 102.63%
[3]; replicate 4
  Cell-surface expression: 110.56%
[3]; replicate 5
  Cell-surface expression: 103.22%

B16: F3097.39A (protein)
chain: B1 Growth hormone secretagogue … with F309A
modifications: SNAP tag labelled with SNAP-Lumi4-Tb; left off: SNAP, N-terminal, kept
[3]; replicate 1
  Cell-surface expression: 77.16%
[3]; replicate 2
  Cell-surface expression: 85.09%
[3]; replicate 3
  Cell-surface expression: 81.26%
[3]; replicate 4
  Cell-surface expression: 79.68%
[3]; replicate 5
  Cell-surface expression: 76.65%

B17: F3127.42A (protein)
chain: B1 Growth hormone secretagogue … with F312A
modifications: SNAP tag labelled with SNAP-Lumi4-Tb; left off: SNAP, N-terminal, kept
[3]; replicate 1
  Cell-surface expression: 89.96%
[3]; replicate 2
  Cell-surface expression: 82.57%
[3]; replicate 3
  Cell-surface expression: 78.32%
[3]; replicate 4
  Cell-surface expression: 82.11%
[3]; replicate 5
  Cell-surface expression: 77.05%

B18: N3057.35A (protein)
chain: B1 Growth hormone secretagogue … with N305A
modifications: left off: SNAP, N-terminal, kept
[3]; replicate 1
  Cell-surface expression: 83.54%
[3]; replicate 2
  Cell-surface expression: 81.81%
[3]; replicate 3
  Cell-surface expression: 86.10%
[3]; replicate 4
  Cell-surface expression: 86.24%
[3]; replicate 5
  Cell-surface expression: 88.82%
